Data published in US20260043020A1, “BINDING MEMBERS WITH ALTERED DIVERSITY SCAFFOLD DOMAINS” (priority 2016, published 2026).

Biological target: rat TFR (rat) (UniProt Q99376)
Assay: cell-based or functional assay

OX26-Fab
% transcytosis after 6 h (in vitro rat BBB model): 0.2%
